Experimental data as given in patent US20240400614A1, “CLEAVABLE PEPTIDES AND METHODS OF USE THEREOF” (Bright Peak Therapeutics AG, priority 2023, published 2024).
Square brackets hold non-standard residues; d marks the D form. Ends that are not written are not given here. Tyr(3-NO2) = N[C@@H](Cc1ccc(O)c([N+](=O)[O-])c1)C(=O)O; 2Abz = Nc1ccccc1C(=O)O

Key:
Format in all cases: biochemical
matriptase = molecular target: T1, matriptase (Homo sapiens, UniProt Q9Y5Y6); experiment: FRET peptide cleavage efficiency with matriptase
T1 construct: purchased R&D Systems 3946-SEB
T1 sequence (Q9Y5Y6 615-855 limits assumed): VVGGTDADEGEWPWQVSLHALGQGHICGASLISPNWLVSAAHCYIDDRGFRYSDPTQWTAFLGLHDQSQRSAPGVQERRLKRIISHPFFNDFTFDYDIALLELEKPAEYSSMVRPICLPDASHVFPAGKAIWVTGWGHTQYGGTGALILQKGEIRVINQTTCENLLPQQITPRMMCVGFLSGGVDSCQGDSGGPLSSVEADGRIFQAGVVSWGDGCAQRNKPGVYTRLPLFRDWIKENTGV

uPA = uPA (Homo sapiens, UniProt P00749); experiment: FRET peptide cleavage efficiency with uPA
MMP-7 = molecular target: T2, MMP-7 (Homo sapiens, UniProt P09237); experiment: FRET peptide cleavage efficiency with MMP-7 (standard pH 7.5; also pH 6.5)
T2 construct: purchased SIGMA CC1059
T2 sequence (P09237 95-267): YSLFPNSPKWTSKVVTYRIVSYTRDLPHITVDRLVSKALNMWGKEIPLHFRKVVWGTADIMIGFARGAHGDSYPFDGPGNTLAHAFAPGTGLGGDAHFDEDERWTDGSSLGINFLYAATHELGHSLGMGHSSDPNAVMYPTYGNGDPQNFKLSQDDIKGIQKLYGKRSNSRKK

MMP-9 = molecular target: T3, MMP-9 (Homo sapiens, UniProt P14780); experiment: FRET peptide cleavage efficiency with MMP-9 (standard pH 7.5; also pH 6.5)
T3 construct: purchased SIGMA PF024
T3 sequence (P14780 94-707): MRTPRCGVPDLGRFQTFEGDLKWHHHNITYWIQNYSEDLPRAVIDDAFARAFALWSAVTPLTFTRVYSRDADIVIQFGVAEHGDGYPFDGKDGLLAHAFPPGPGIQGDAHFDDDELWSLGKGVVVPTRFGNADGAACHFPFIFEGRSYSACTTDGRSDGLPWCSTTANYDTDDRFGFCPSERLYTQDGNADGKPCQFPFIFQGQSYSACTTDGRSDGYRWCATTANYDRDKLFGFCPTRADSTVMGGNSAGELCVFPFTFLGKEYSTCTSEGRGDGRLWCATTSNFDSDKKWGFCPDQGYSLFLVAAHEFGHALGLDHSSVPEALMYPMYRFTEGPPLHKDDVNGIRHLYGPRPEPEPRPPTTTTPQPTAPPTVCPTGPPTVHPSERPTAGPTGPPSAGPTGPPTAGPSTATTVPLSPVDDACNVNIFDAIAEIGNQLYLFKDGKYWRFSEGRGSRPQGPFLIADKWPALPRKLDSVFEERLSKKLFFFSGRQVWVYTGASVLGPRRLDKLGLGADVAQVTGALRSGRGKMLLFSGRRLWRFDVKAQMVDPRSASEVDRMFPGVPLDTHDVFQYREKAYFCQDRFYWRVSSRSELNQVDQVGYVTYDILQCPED

MMP-2 = molecular target: T4, MMP-2 (Homo sapiens, UniProt P08253); experiment: FRET peptide cleavage efficiency with MMP-2
T4 construct: purchased SIGMA PF023
T4 sequence (P08253 110-660): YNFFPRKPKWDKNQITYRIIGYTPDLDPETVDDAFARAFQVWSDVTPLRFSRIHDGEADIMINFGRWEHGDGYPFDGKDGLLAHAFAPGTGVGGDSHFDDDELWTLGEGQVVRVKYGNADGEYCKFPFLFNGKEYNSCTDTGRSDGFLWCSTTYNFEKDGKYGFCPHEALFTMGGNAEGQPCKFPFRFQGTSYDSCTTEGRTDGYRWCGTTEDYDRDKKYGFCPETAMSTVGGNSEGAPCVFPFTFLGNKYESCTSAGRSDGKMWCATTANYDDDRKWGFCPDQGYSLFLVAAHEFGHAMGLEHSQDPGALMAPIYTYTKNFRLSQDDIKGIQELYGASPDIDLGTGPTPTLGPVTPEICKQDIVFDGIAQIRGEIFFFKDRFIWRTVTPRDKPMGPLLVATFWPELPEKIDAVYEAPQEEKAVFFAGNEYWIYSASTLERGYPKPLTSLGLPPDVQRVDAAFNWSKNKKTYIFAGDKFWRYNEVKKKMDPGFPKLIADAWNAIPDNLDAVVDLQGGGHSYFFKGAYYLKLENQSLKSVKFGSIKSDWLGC

[1] = t = 15 min, 200 uM linker, 1 ug/ml protease, 37° C., buffer B pH 9.0
[2] = t = 60 min, 200 uM linker, 1 ug/ml protease, 37° C., buffer B pH 9.0
[3] = 200 uM linker, 1 ug/ml protease, 37° C., buffer B pH 9.0
[4] = t = 15 min, 200 uM linker, 1 ug/ml protease, 37° C., buffer A pH 8.5
[5] = t = 60 min, 200 uM linker, 1 ug/ml protease, 37° C., buffer A pH 8.5
[6] = t = 120 min, 200 uM linker, 1 ug/ml protease, 37° C., buffer A pH 8.5
[7] = t = 15 min, 200 uM linker, 1 ug/ml protease, 37° C., buffer C pH 7.5
[8] = t = 60 min, 200 uM linker, 1 ug/ml protease, 37° C., buffer C pH 7.5
[9] = t = 120 min, 200 uM linker, 1 ug/ml protease, 37° C., buffer C pH 7.5
[10] = t = 15 min, standard conditions (Table 8)
[11] = t = 60 min, standard conditions (Table 8)
[12] = t = 120 min, standard conditions (Table 8)

With “SSRGPYMLQG ([2Abz]SSRGPYMLQG[Tyr(3-NO2)]-NH2) [LNK022]” the “% cleavage Matriptase t = 15 min” value (matriptase; pH 6.5, t = 15 min (Table 7)) was 0%, the “% cleavage Matriptase t = 60 min” value (matriptase; pH 6.5, t = 60 min (Table 7)) was 0% and the “% cleavage Matriptase t = 15 min” value (matriptase; pH 7.5, t = 15 min (Table 7)) was 0%. For the same sequence, the “% cleavage Matriptase t = 60 min” value (matriptase; pH 7.5, t = 60 min (Table 7)) was 0%, the “% cleavage Matriptase t = 15 min” value (matriptase; [1]) was 8% and the “% cleavage Matriptase t = 60 min” value (matriptase; [2]) was 9%. For the same sequence, the “% cleavage Matriptase t = 120 min” value (matriptase; [3]) was 11%, the “% cleavage uPA t = 60 min” value (uPA; pH 6.5, t = 60 min (Table 7)) was 0% and the “% cleavage uPA t = 120 min” value (uPA; pH 6.5, t = 120 min (Table 7)) was 0%. The “% cleavage uPA t = 60 min” value (uPA; pH 7.5, t = 60 min (Table 7)) was 0%, the “% cleavage uPA t = 120 min” value (uPA; pH 7.5, t = 120 min (Table 7)) was 0% and the “% cleavage uPA t = 15 min” value (uPA; [4]) was 0%. The “% cleavage uPA t = 60 min” value (uPA; [5]) was 1%, the “% cleavage uPA t = 120 min” value (uPA; [6]) was 3% and the “% cleavage MMP-7 t = 15 min” value (MMP-7; t = 15 min (Table 9)) was 40%. For the same sequence, the “% cleavage MMP-7 t = 60 min” value (MMP-7; t = 60 min (Table 9)) was 0%, the “% cleavage MMP-7 t = 120 min” value (MMP-7; t = 120 min (Table 9)) was 100% and the “% cleavage MMP-9 t = 15 min” value (MMP-9; t = 15 min (Table 9)) was 63%. The “% cleavage MMP-9 t = 60 min” value (MMP-9; t = 60 min (Table 9)) was 99%, the “% cleavage MMP-9 t = 120 min” value (MMP-9; t = 120 min (Table 9)) was 100% and the “% cleavage MMP-2 t = 15 min” value (MMP-2; pH 6.5, t = 15 min (Table 7)) was 32%. For the same sequence, the “% cleavage MMP-2 t = 60 min” value (MMP-2; pH 6.5, t = 60 min (Table 7)) was 74%, the “% cleavage MMP-2 t = 15 min” value (MMP-2; pH 7.5, t = 15 min (Table 7)) was 36% and the “% cleavage MMP-2 t = 60 min” value (MMP-2; pH 7.5, t = 60 min (Table 7)) was 84%. For the same sequence, the “% cleavage MMP-2 t = 15 min” value (MMP-2; t = 15 min (Table 9)) was 27%, the “% cleavage MMP-2 t = 15 min” value (MMP-2; [7]) was 31% and the “% cleavage MMP-2 t = 60 min” value (MMP-2; t = 60 min (Table 9)) was 79%. For the same sequence, the “% cleavage MMP-2 t = 60 min” value (MMP-2; [8]) was 81%, the “% cleavage MMP-2 t = 120 min” value (MMP-2; t = 120 min (Table 9)) was 94% and the “% cleavage MMP-2 t = 120 min” value (MMP-2; [9]) was 96%.

With “RGRKVANLVG ([2Abz]RGRKVANLVG[Tyr(3-NO2)]-NH2) [LNK031]” the “% cleavage Matriptase t = 15 min” value (matriptase; [10]) was 99%, the “% cleavage Matriptase t = 60 min” value (matriptase; [11]) was 100% and the “% cleavage Matriptase t = 120 min” value (matriptase; standard conditions (Table 8)) was 100%. The “% vcleavage uPA t = 15 min” value (uPA; [10]) was 1%, the “% cleavage uPA t = 60 min” value (uPA; [11]) was 1% and the “% cleavage uPA t = 120 min” value (uPA; [12]) was 2%. For the same sequence, the “% cleavage MMP-7 t = 15 min” value (MMP-7; t = 15 min (Table 9)) was 22%, the “% cleavage MMP-7 t = 15 min” value (MMP-7; [10]) was 22% and the “% cleavage MMP-7 t = 60 min” value (MMP-7; t = 60 min (Table 9)) was 74%. The “% cleavage MMP-7 t = 60 min” value (MMP-7; [11]) was 74%, the “% cleavage MMP-7 t = 120 min” value (MMP-7; t = 120 min (Table 9)) was 93% and the “% cleavage MMP-7 t = 120 min” value (MMP-7; [12]) was 93%. The “% cleavage MMP-9 t = 15 min” value (MMP-9; t = 15 min (Table 9)) was 75%, the “% cleavage MMP-9 t = 15 min” value (MMP-9; [10]) was 75% and the “% cleavage MMP-9 t = 60 min” value (MMP-9; t = 60 min (Table 9)) was 100%. The “% cleavage MMP-9 t = 60 min” value (MMP-9; [11]) was 100%, the “% cleavage MMP-9 t = 120 min” value (MMP-9; t = 120 min (Table 9)) was 100% and the “% cleavage MMP-9 t = 120 min” value (MMP-9; [12]) was 100%. The “% cleavage MMP-2 t = 15 min” value (MMP-2; t = 15 min (Table 9)) was 77%, the “% cleavage MMP-2 t = 60 min” value (MMP-2; t = 60 min (Table 9)) was 100% and the “% cleavage MMP-2 t = 60 min” value (MMP-2; [11]) was 100%. The “% cleavage MMP-2 t = 120 min” value (MMP-2; t = 120 min (Table 9)) was 100% and the “% cleavage MMP-2 t = 120 min” value (MMP-2; [12]) was 100%.

For “SGRVLRKAGPQPLVD ([2Abz]SGRVLRKAGPQPLVD[Tyr(3-NO2)]-NH2) [LNK003]”, the “% cleavage Matriptase t = 15 min” value (matriptase; pH 6.5, t = 15 min (Table 7)) was 48%, the “% cleavage Matriptase t = 60 min” value (matriptase; pH 6.5, t = 60 min (Table 7)) was 93% and the “% cleavage Matriptase t = 15 min” value (matriptase; pH 7.5, t = 15 min (Table 7)) was 98%. The “% cleavage Matriptase t = 60 min” value (matriptase; pH 7.5, t = 60 min (Table 7)) was 100%, the “% cleavage Matriptase t = 15 min” value (matriptase; [1]) was 96% and the “% cleavage Matriptase t = 60 min” value (matriptase; [2]) was 91%. The “% cleavage Matriptase t = 120 min” value (matriptase; [3]) was 88%, the “% cleavage uPA t = 60 min” value (uPA; pH 6.5, t = 60 min (Table 7)) was 0% and the “% cleavage uPA t = 120 min” value (uPA; pH 6.5, t = 120 min (Table 7)) was 0%. The “% cleavage uPA t = 60 min” value (uPA; pH 7.5, t = 60 min (Table 7)) was 0%, the “% cleavage uPA t = 120 min” value (uPA; pH 7.5, t = 120 min (Table 7)) was 0% and the “% cleavage uPA t = 15 min” value (uPA; [4]) was 3%. For the same sequence, the “% cleavage uPA t = 60 min” value (uPA; [5]) was 10%, the “% cleavage uPA t = 120 min” value (uPA; [6]) was 20% and the “% cleavage MMP-7 t = 15 min” value (MMP-7; t = 15 min (Table 9)) was 19%. For the same sequence, the “% cleavage MMP-7 t = 60 min” value (MMP-7; t = 60 min (Table 9)) was 62%, the “% cleavage MMP-7 t = 120 min” value (MMP-7; t = 120 min (Table 9)) was 86% and the “% cleavage MMP-9 t = 15 min” value (MMP-9; t = 15 min (Table 9)) was 22%. The “% cleavage MMP-9 t = 60 min” value (MMP-9; t = 60 min (Table 9)) was 72%, the “% cleavage MMP-9 t = 120 min” value (MMP-9; t = 120 min (Table 9)) was 93% and the “% cleavage MMP-2 t = 15 min” value (MMP-2; pH 6.5, t = 15 min (Table 7)) was 5%. For the same sequence, the “% cleavage MMP-2 t = 60 min” value (MMP-2; pH 6.5, t = 60 min (Table 7)) was 39%, the “% cleavage MMP-2 t = 15 min” value (MMP-2; pH 7.5, t = 15 min (Table 7)) was 6% and the “% cleavage MMP-2 t = 60 min” value (MMP-2; pH 7.5, t = 60 min (Table 7)) was 28%. For the same sequence, the “% cleavage MMP-2 t = 15 min” value (MMP-2; t = 15 min (Table 9)) was 7%, the “% cleavage MMP-2 t = 15 min” value (MMP-2; [7]) was 8% and the “% cleavage MMP-2 t = 60 min” value (MMP-2; t = 60 min (Table 9)) was 34%. The “% cleavage MMP-2 t = 60 min” value (MMP-2; [8]) was 38%, the “% cleavage MMP-2 t = 120 min” value (MMP-2; t = 120 min (Table 9)) was 59% and the “% cleavage MMP-2 t = 120 min” value (MMP-2; [9]) was 65%.
